Experimental data published in paper PMC8016914.

Target: T1, PsbS modified to contain a strep-tag at the C terminus (Arabidopsis thaliana), Q9XF91
T1 chain: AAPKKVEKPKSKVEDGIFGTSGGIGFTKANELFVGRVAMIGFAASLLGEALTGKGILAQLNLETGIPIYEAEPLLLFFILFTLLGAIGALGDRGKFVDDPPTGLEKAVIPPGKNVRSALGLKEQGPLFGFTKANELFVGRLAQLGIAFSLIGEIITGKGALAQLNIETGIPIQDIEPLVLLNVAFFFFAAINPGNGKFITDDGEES
Assay: SDS-PAGE and immunoblot; PsbS in detergent and in LHCII + PsbS proteoliposomes (thylakoid lipids); monomeric (M) and dimeric (D) bands detected with an anti-PsbS antibody
Conditions: remark: other sources report otherwise

stoichiometry N: 2
B1: PsbS modified to contain a strep-tag at the C terminus, Q9XF91 60-265 (natural protein)
chain: AAPKKVEKPKSKVEDGIFGTSGGIGFTKANELFVGRVAMIGFAASLLGEALTGKGILAQLNLETGIPIYEAEPLLLFFILFTLLGAIGALGDRGKFVDDPPTGLEKAVIPPGKNVRSALGLKEQGPLFGFTKANELFVGRLAQLGIAFSLIGEIITGKGALAQLNIETGIPIQDIEPLVLLNVAFFFFAAINPGNGKFITDDGEES
